The values below come from article PMC6302015.

Test [1] deals with Dopamine receptor D2 (D2R) peptide (N430-R443). Briefly: ITC; MicroCal VP-ITC; 50 μM D2R peptide in the cell titrated with NCS-1; 25°C; 20 mM Tris-HCl pH 8.0, 150 mM NaCl, 5 mM CaCl2 and 100 μM ZnCl2; one set of sites model.
For test [2] the target is unchanged. As to the kind of experiment: ITC; MicroCal VP-ITC; 50 μM D2R peptide in the cell titrated with NCS-1 (1 mM stock, thirty 10 μl injections); 25°C; 20 mM Tris-HCl pH 8.0, 150 mM NaCl, 5 mM CaCl2; one set of sites model.
The target in test [3] is GST-tagged N-terminal fragment of GRK1 (M1-G183) (UniProt P28327). Briefly: pull-down; 50 μg GST-N-GRK1 immobilised on Glutathione Sepharose; 25 μM NCS-1 applied; 20 mM Tris pH 8.0, 150 mM NaCl, 1 mM DTT, 1 mM CaCl2 and 0-100 μM ZnCl2; 1 h at 4°C; bound NCS-1 detected by western blotting.
Sequence of UniProt P28327 (P28327 1-183): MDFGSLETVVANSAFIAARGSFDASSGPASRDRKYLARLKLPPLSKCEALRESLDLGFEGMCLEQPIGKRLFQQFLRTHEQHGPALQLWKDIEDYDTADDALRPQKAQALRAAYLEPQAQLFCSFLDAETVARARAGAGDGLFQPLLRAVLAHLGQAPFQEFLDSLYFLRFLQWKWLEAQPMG

“Neuronal calcium sensor-1 (recombinant myristoylated NCS-1) (from UniProt P62166 1-190) (natural protein)”: in test [1], the Ka amounted to 118000 M⁻¹, the Kd worked out at 8.47 µM, the dH is -3.2 kcal/M and the stoichiometry N came out at 0.508. For the same substance, in test [2], the Ka was found to be 33200 M⁻¹, the dissociation constant Kd was found to be 30.1 µM, the dH is -3 kcal/M and the stoichiometry N amounted to 0.676. This substance had a fold change of binding with 25 μM Zn^2+ against no Zn^2+ in test [3] of 2 fold.
